Results on one molecule are retold here after patent US20250025499A1 (published 2025).

Test [1] concerns the target T1, spermatogenesis-associated protein 1 (SPATA1) peptide on HLA-B*40:01 (human).
T1 peptide: VEDRTIRQL
Kind of test: killing. On the procedure:
(§1) LCL were pulsed with QEVRTISAL (SEQ ID NO: 1) peptide at 1000 ng/ml prior to co-culture (>5 biological replicates per HLA). […] The tested peptides include […] (SEQ ID NO: 50), […] (SEQ ID NO: 64), and […] (SEQ ID NO: 65). QEVRTISAL (SEQ ID NO: 1) peptide and the wild-type equivalent QKVRTISAL (SEQ ID NO: 2) were included as controls (3 technical replicate experiments). […] For all experiments, mean and standard error of the mean (SEM) are shown.
(§2) Cytotoxicity was measured in short-term (4-hour) assays using 51Cr-labeled target cells. Briefly, target cells were labeled with ⁵¹Cr overnight (cell lines) or for 6 hours (primary leukemia) at 37° C. and 5% CO₂. Effector cells were added to labeled target cells and incubated for 4 hours. After co-incubation, supernatant was harvested for γ-counting. Specific lysis was calculated using a standard formula. Targets used included autologous LCL with and without peptides in varying concentrations. All targets were washed to remove excess 51Cr and residual interferon-γ or peptide before co-culture initiation.

Test [2] addresses T2, SF3B1 K700E epitope with alanine at position 6 peptide on HLA-B*40:01 (human).
T2 peptide: QEVRTASAL
The test can be described thus: killing. On the procedure:
as §1, §2

The target in test [3] is T3, SF3B1 K700E peptide on HLA-B*40:02 (human).
T3 peptide: QEVRTISAL
Kind of test: killing. On the procedure:
as §1, §2

Test [4] has as its target T4, SF3B1 K700E epitope with alanine at position 4 peptide on HLA-B*40:01 (human).
T4 peptide: QEVATISAL
Kind of test: killing. How it is done:
as §1, §2

Test [5] concerns the target T5, Gem-associated protein 5 (GEMIN5) peptide on HLA-B*40:01 (human).
T5 peptide: IEPRTIFCL
The test can be described thus: killing. On the procedure: as §1, §2

For test [6], the target named is T6, SF3B1 wild-type peptide on HLA-B*40:01 (human).
T6 peptide: QKVRTISAL
The test can be described thus: killing. How it is done: as §1, §2

In test [7] the target is T7, alkylglycerone-phosphate synthase (AGPS) peptide on HLA-B*40:01 (human).
T7 peptide: DETRTIISL
The test can be described thus: killing. On the procedure: as §1, §2

Test [8] has as its target T8, SF3B1 K700E epitope with alanine at position 2 peptide on HLA-B*40:01 (human).
T8 peptide: QAVRTISAL
The test can be described thus: killing. On the procedure: as §1, §2

The target of test [9] is T9, SF3B1 K700E epitope with alanine at position 3 peptide on HLA-B*40:01 (human).
T9 peptide: QEARTISAL
Kind of test: killing. How it is done:
as §1, §2

In test [10] the target is T10, SF3B1 K700E epitope with valine at position 8 peptide on HLA-B*40:01 (human).
T10 peptide: QEVRTISVL
The test can be described thus: killing. On the procedure: as §1, §2

Test [11] addresses T11, SF3B1 K700E epitope with alanine at position 9 peptide on HLA-B*40:01 (human).
T11 peptide: QEVRTISAA
Kind of test: killing. On the procedure:
as §1, §2

The target in test [12] is T12, mitochondrial trifunctional enzyme subunit alpha (HADHA) peptide on HLA-B*40:01 (human).
T12 peptide: PEERTIEYL
Kind of test: killing. On the procedure:
as §1, §2

Test [13] has as its target T13, SF3B1 K700E epitope with alanine at position 1 peptide on HLA-B*40:01 (human).
T13 peptide: AEVRTISAL
Kind of test: killing. On the procedure: as §1, §2

Test [14] deals with T14, SF3B1 K700E epitope with alanine at position 7 peptide on HLA-B*40:01 (human).
T14 peptide: QEVRTIAAL
The test can be described thus: killing. How it is done: as §1, §2

Test [15] deals with T15, SF3B1 K700E epitope with alanine at position 5 peptide on HLA-B*40:01 (human).
T15 peptide: QEVRAISAL
Kind of test: killing. On the procedure: as §1, §2

In test [16] the target is T16, SF3B1 K700E epitope with glycine at position 8 peptide on HLA-B*40:01 (human).
T16 peptide: QEVRTISGL
Kind of test: killing. How it is done: as §1, §2

Test [17] has as its target T17, CBFB-MYH11 type A peptide on HLA-B*40:01 (human).
T17 peptide: REEMEVHEL
The test can be described thus: killing. On the procedure: as §1, §2

For test [18], the target named is T18, SF3B1 K700E peptide on HLA-B*40:01 (human).
T18 peptide: QEVRTISAL
Kind of test: peptide titration 51Cr-release assay; clone 24 against autologous LCL pulsed with varying peptide concentrations; T cell clone or line. How it is done:
as §1, §2

B1: TCR24 (SF3B1^K700E/B*40:01-specific TCR from clone 24) (TCR, V domains shown)
Valpha: AQSVTQPDIHITVSEGASLELRCNYSYGATPYLFWYVQSPGQGLQLLLKYFSGDTLVQGIKGFEAEFKRSQSSFNLRKPSVHWSDAAEYFCAVAAKDSSYKLIFGSGTRLLVRP
Vbeta: SAVISQKPSRDICQRGTSLTIQCQVDSQVTMMFWYRQQPGQSLTLIATANQGSEATYESGFVIDKFPISRPNLTFSTLTVSNMSPEDSSIYLCSDRGQVVGETQYFGPGTRLLVL
On to B1, for which the binding result in test [1], in test [2], in test [3], in test [4], in test [5] and in test [6] was “no recognition” throughout. For the same molecule, the binding result is “no recognition” in [7]; “no recognition” in test [8]; “recognises” in [9]; “recognises” in [10]; “no recognition” in test [11]; “no recognition” in test [12]. Also, the binding result is “recognises” in test [13]; “recognises” in test [14]; “no recognition” in test [15]; “recognises” in test [16]; “no recognition” in test [17]. For the same molecule, the EC50 of peptide in [18] was around 0.1 ng/mL.
